The text below walks through data of PMC6488296, “Optogenetic control shows that kinetic proofreading regulates the activity of the T cell receptor” (eLife, 2019).

This assay addresses T1, PhyB_(1-651)-Avitag-His6 (A. thaliana, UniProt P14713 1-651, phycocyanobilin chromophore; biotin on the Avitag).
T1 construct: phytochrome B (PhyB), Arabidopsis thaliana, the light-responsive N-terminal 651 amino acids; 740 nm light puts them in the OFF state; also called PhyB(660); PhyB(740); source: E. coli BL21(DE3) co-transformed with p171 (phycocyanobilin production), 50 uM biotin in the medium, purified (Ni-NTA); not shown: Avitag, C-terminal, kept; His6, C-terminal, kept
T1 sequence (looked up): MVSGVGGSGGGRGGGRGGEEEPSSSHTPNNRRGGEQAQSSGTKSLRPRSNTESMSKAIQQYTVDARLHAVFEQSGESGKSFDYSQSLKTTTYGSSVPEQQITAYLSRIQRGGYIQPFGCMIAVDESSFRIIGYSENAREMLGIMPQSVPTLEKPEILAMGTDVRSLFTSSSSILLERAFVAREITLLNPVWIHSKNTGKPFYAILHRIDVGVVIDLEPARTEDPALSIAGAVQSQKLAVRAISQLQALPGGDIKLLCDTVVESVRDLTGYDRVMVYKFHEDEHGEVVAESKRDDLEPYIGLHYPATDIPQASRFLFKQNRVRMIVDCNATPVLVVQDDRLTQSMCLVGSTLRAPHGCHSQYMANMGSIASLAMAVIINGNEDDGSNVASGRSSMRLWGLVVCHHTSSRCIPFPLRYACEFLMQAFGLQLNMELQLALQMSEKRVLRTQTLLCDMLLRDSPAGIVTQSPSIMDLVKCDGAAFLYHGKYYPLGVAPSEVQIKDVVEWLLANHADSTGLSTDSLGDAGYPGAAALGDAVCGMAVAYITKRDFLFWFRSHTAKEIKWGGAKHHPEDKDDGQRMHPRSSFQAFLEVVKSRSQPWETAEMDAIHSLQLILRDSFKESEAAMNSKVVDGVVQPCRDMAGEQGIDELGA
Briefly: SEC; 200 ug PhyB illuminated with 660 nm light, added in a 2:1 molar ratio to MBP-PIF (limiting MBP-PIF); 60 min at room temperature; Superdex 200 10/300 GL; PhyB detected at 671 nm. Particulars: both partners purified.

B1: MBP-PIF6_(1-100)-His6 (domain or fragment, A. thaliana, UniProt Q8L5W7 1-100, looked up)
chain: MMFLPTDYCCRLSDQEYMELVFENGQILAKGQRSNVSLHNQRTKSIMDLYEAEYNEDFMKSIIHGGGGAITNLGDTQVVPQSHVAAAHETNMLESNKHVD
notes: also called MBP-PIF(wt); pOSY061; source: E. coli BL21(DE3), purified (Ni-NTA); not shown: His6, C-terminal, kept
Take B1: the binding result is “binds”.
